Results published in patent publication US20130184211A1 (NEW YORK UNIVERSITY, published 2013).
One block for each binder: values may come before it.

Columns and labels:
[1] = biological target: FGFR-Klotho complex of opossum kidney OKP cells (opossum); test: cell-based or functional assay
[2] = biological target: T1, 1:1 binary complex of the ectodomains of FGFR1c and Klotho (human; murine, UniProt O35082 35-982); test: SPR competition dose-response: FGF23^180-205 mixed with a fixed concentration of FGFR1c-Klotho, immobilized FGF23^28-251 as competitor; averaged data of two to three experiments
T1 construct: range 35-982; also called FGFR1c-Klotho complex; binary FGFR1c-Klotho complex; not shown: C-terminal FLAG tag
T1 sequence 1: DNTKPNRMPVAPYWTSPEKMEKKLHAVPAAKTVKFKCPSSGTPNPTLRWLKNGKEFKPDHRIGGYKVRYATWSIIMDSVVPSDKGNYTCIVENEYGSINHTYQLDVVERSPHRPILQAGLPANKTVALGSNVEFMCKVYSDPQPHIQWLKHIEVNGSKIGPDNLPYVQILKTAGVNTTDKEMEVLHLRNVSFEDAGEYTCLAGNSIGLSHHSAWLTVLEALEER
T1 sequence 2: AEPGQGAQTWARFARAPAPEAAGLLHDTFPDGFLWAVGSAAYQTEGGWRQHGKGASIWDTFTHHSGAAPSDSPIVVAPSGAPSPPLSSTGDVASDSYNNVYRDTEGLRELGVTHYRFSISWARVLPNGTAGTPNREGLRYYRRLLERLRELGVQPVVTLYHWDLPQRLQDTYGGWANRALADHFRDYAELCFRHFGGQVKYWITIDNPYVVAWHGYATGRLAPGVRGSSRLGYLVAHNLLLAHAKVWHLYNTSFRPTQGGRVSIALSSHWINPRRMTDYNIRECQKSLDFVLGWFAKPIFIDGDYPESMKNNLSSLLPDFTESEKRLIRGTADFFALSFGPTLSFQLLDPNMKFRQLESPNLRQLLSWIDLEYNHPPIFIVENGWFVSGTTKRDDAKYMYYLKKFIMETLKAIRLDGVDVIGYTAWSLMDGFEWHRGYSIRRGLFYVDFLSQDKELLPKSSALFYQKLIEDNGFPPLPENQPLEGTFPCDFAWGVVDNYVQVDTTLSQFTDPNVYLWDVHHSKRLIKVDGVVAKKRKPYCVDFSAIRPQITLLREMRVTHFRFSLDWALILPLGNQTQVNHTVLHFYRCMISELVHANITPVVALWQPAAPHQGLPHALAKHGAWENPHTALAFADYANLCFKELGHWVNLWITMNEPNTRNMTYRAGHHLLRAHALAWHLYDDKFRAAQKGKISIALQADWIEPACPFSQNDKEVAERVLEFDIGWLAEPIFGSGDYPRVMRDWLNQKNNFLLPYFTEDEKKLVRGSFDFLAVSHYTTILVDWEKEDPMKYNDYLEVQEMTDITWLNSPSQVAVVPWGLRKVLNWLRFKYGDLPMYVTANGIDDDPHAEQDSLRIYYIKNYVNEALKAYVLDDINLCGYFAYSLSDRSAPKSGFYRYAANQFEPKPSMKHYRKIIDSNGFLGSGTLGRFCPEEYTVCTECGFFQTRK
Text: To analyze FGF23 binding to the binary FGFR1c-Klotho complex, FGF23²⁸⁻²⁵¹ was coupled to a chip, and increasing concentrations of 1:1 complex of the ectodomains of FGFR1c and Klotho in HBS-EP buffer were passed over the chip. To measure binding of the C-terminal tail of FGF23 to the binary FGFR1c-Klotho complex, FGF23¹⁸⁰⁻²⁵¹ was immobilized on a chip, and increasing concentrations of 1:1 complex of the ectodomains of FGFR1c and Klotho in HBS-EP buffer were passed over the chip. To examine whether the C-terminal tail of FGF23 can compete with full-length FGF23 for binding to the binary FGFR1c-Klotho complex, FGF23²⁸⁻²⁵¹ was immobilized on a chip. Increasing concentrations of FGF23¹⁸⁰⁻²⁵¹ were mixed with a fixed concentration of 1:1 complex of the ectodomains of FGFR1c and Klotho in HBS-EP buffer, and the mixtures were passed over the chip. As a control, competition of FGF23 in solution with immobilized FGF23 for binding to the binary FGFR1c-Klotho complex was studied. Increasing concentrations of FGF23²⁸⁻²⁵¹ were mixed with a fixed concentration of 1:1 complex of the ectodomains of FGFR1c and Klotho in HBS-EP buffer, and the mixtures were passed over the FGF23 chip. […] As a control, competition of FGF23 C-terminal tail peptide in solution with immobilized FGF23 C-terminal tail peptide for binding to the binary FGFR1c-Klotho complex was analyzed. […]

- antagonism of the inhibition of sodium-coupled phosphate uptake by FGF23^28-251 in OKP cells, IC50 [1]: ~21 nM
B1: N-terminally hexahistidine-tagged 72-amino acid C-terminal tail of human FGF23 (S180 to I251), FGF23^180-251 (peptide)
peptide: SAEDDSERDPLNVLKPRARMTPAPASCSQELPSAEDNSPMASDPLGVVRGGRVNTHAGGTGPEGCRPFAKFI
notes: Expressed in E. coli; also called FGF23 C-terminal tail peptide; C-terminal tail of FGF23; not shown: N-terminal hexahistidine tag (six His)

- IC50 (read off the curve) [2]: ~100 nM
B2: FGF23 C-terminal region peptide (S180 to S205), FGF23^180-205 (peptide)
peptide: SAEDDSERDPLNVLKPRARMTPAPAS
notes: Made by solid phase synthesis (GenScript)
